According to the RNAGym collection of RNA variant scans (doi:10.7554/elife.80360):

B1: Hairpin Ribozyme (parent)
chain: GUCCUCUUUCACGUGCGCGUGAAAGAGAGAAGUGAACCAGAGAAACACACGUUGUGGUAUAUUACCUGGUA

Variants of: B1
Test: self-cleavage, relative activity (ratio to wild type); higher = more cleavage; co-transcriptional

Row | Variant | self-cleavage
1 | GUCCUCUUUCACGUGCGCGUGAAUGAGAGAAGUGAACCAGAGAAACACACGUUGUGGUAUAUUUCCUGGUA | 0.0963
2 | GUCCUCUUUCACGUGCGCGUGAAAGAGAGAAGUGAACCAGAGAAACACACGUUGUGGAAUAUUACCCGGUA | 0.118
3 | GUCCUGUUUCACGUGCGCUUGAAAGAGAGAAGUGAACCAGAGAAACACACGUUGUGGUAUAUUACCUGGUA | 0.201
4 | GCCCUCUUUCACGUGCGCGUGAAAGAGAGAAGUGAACCAGAGAAACAGACGUUGUGGUAUAUUACCUGGUA | 0.108
5 | GUCCUCUUUCACGCGCGGGUGAAAGAGAGAAGUGAACCAGAGAAACACACGUUGUGGUAUAUUACCUGGUA | 0.957
6 | GUCCUCUUUCACGUGCGCGUGAAAGAGAGAAGUGAACCAGAGAAACACACGUUGUGGUAUAUUCCCUAGUA | 0.18
7 | GUGCUCUUUCACGUGCGCGUGAAAGAGAGAAGUGAACCAGAGAAACACACGUUGUGGUAUAUUAACUGGUA | 0.263
8 | GUCCUCUUUCACGUGCGCGUGAAAGAGAGAAGUGAACCAGCGAAAGACACGUUGUGGUAUAUUACCUGGUA | 0.117
9 | GUCCUCUUUCACGUGAGCGUGAAAGAGAGAGGUGAACCAGAGAAACACACGUUGUGGUAUAUUACCUGGUA | 0.536
10 | GUCCGCUUUCACGUGCGCGUGAAAGAGAGAAGUGAACCAGAGAAACACACGUUGUGCUAUAUUACCUGGUA | 0.0591
11 | GUCCUCUUUCACGUGCGCGUGUAAGAGAGAAGUGAACCAGAGAAACACACGUUGGGGUAUAUUACCUGGUA | 0.298
12 | GUCCUCUUUCACGUGCGCGUGAAAGAGAGAAGUGAACCAGAGAAACACACGCGGUGGUAUAUUACCUGGUA | 1
13 | GUCCUCUUUCACGUGCGCGUGAAAGAGAGAAGUGAACCAGAGAAACACACGUUGGGGUAUAUUACCUGGAA | 0.351
14 | GUCCUCUUUCACGUGCGCGUGAAAGAGAGAAGUGAACCAGAGAAACACAAGUUGUGGUAUAUUGCCUGGUA | 0.211
15 | GUCCUCUUGCACGUGCGCGUGAAAGAGAGAAGUGAACCAGAGAAACACACGUUGUGGUAUAUUACCUGGCA | 0.72
16 | GUCCUCUUUCACGUGCGCGUGAAAGAGAGAAGUGAACCAUAGAAACACACGUUGUGGUAUAUUACCUGGUG | 0.209
17 | GUCCUCUUUCACGUGCGCGUGAAAGAGAUAAGUGAACCAGAGAAACACACAUUGUGGUAUAUUACCUGGUA | 0.139
18 | UUCCUCUUUCACGUGCGCGUGAAAGAGAGAAGUGAACCAGAGAAACACACGUUGUGGUAUACUACCUGGUA | 0.172
19 | GUCCUCUUUCACGUGCGCGUAAAAGAGAGAAGUGAACCAGAGAAACACACGUUCUGGUAUAUUACCUGGUA | 0.293

Row | Variant | self-cleavage
20 | GUCCUCUUUCACGUGCGCGUGAAAGAGAGAAGUGAACCACAGAAACACACGCUGUGGUAUAUUACCUGGUA | 0.137
21 | GUCCUCUUUCACGUGCGCGUGAAAGGGAGAAGUGAACCAGAGAAACACACGUUGUGGUAUAUCACCUGGUA | 0.225
22 | GUCCUCUUUCACGUGCGCGUGAAAGAGAGAAGUGCACCAGAGAAACACCCGUUGUGGUAUAUUACCUGGUA | 0.147
23 | GUCCUCUUUCACGGGCGCGUGAAAGAGAGAAGUGAACCAGAGAAACGCACGUUGUGGUAUAUUACCUGGUA | 0.157
24 | GUCCUCUUUCACGUGCGCGUGAAAGAGACAAGUGAACCAGAGAAACACACGUUGUGGUAUAUUACCUCGUA | 0.124
25 | GUCCUCUUUCACCUGCGCGUGAAAGGGAGAAGUGAACCAGAGAAACACACGUUGUGGUAUAUUACCUGGUA | 0.492
26 | GUCCUCUUUCACGUGCGCGUGAAAGAGAGAAGUGAACCAGAGUAAGACACGUUGUGGUAUAUUACCUGGUA | 0.0741
27 | GUCCUCUUUCACGUGCGCGUUAAUGAGAGAAGUGAACCAGAGAAACACACGUUGUGGUAUAUUACCUGGUA | 0.78
28 | GUCCUCUUUCACGUGCGCGUGAAAGAAAGACGUGAACCAGAGAAACACACGUUGUGGUAUAUUACCUGGUA | 0.193
29 | GUCCUCUUUCACGUGCGCGUGAAAGAGAGAAAUGAACCAGAGAAACACACGUGGUGGUAUAUUACCUGGUA | 0.146
30 | GUCCUCUUUCACGUGCCCGUGAAAGAGAGAAGUGAACCAGAGAAACACACGUUGUGGUACAUUACCUGGUA | 1.08
31 | GUCCUCUUUCACGUGCGCGUGAAAGAGAGAAGCGAACCAGAGAAACACACGUUGUGGUAUACUACCUGGUA | 0.0427
32 | GUCCUCUUUCACGUGCGCGUGAAAGAGAGAAGUGAACCAGAGAAAGACAGGUUGUGGUAUAUUACCUGGUA | 0.217
33 | GUCCUCUUUCACGUGCGCGUGAAAGAGAGAAGUGAACCAGAGAAACACACGUUGUAGUAUAUUACCUAGUA | 0.119
34 | GUCCUCAUUCACGUGCGCGUGAAAGAGAGAAGUGAACCAAAGAAACACACGUUGUGGUAUAUUACCUGGUA | 0.313
35 | GUCCUCUUUCUCGUGCGCCUGAAAGAGAGAAGUGAACCAGAGAAACACACGUUGUGGUAUAUUACCUGGUA | 0.687
36 | GUCCUCUUUCACGUGCGCGUGAAUGAGAGAAGUGAACCAGAGAAACACACGUUGUGGUAUAUUAACUGGUA | 0.734
37 | GUCCUCUUUCACGUGCGGGUGAAAGAGAGAAGUGAACCAGAGAAACAAACGUUGUGGUAUAUUACCUGGUA | 0.146
38 | GUCCUCUUUGACGUCCGCGUGAAAGAGAGAAGUGAACCAGAGAAACACACGUUGUGGUAUAUUACCUGGUA | 0.962
